Key:
human TrkB-His [1] = target: T1, human TrkB-His (human, UniProt Q16620 32-430); experiment: ELISA
T1 construct: in-house fusion of the TrkB ECD with poly-His, HEK293; also called huTrkB-His; hTrkB-His; not shown: poly-His tag

mouse TrkB-ECD-GST = target: T2, mouse TrkB-ECD-GST (mouse, UniProt P15209 32-429); experiment: ELISA
T2 construct: extracellular domain; in-house fusion, HEK293; also called mTrkB-ECD-GST; mTrkB (ELISA); not shown: glutathione S-transferase (GST) fusion part

human TrkA-His = human TrkA-His (human, UniProt P04629 33-417, limits assumed); experiment: ELISA
human TrkC-His = human TrkC-His (human, UniProt Q16288 32-429); experiment: ELISA
human TrkB-His [2] = target: T1, human TrkB-His; experiment: BLI off-rate, mAb captured
[3] = target: TrkB in PathHunter eXpress TrkB Functional Assay cells (modified U2OS); experiment: cell-based or functional assay

Sequence of human TrkA-His (P04629 33-417 limits assumed): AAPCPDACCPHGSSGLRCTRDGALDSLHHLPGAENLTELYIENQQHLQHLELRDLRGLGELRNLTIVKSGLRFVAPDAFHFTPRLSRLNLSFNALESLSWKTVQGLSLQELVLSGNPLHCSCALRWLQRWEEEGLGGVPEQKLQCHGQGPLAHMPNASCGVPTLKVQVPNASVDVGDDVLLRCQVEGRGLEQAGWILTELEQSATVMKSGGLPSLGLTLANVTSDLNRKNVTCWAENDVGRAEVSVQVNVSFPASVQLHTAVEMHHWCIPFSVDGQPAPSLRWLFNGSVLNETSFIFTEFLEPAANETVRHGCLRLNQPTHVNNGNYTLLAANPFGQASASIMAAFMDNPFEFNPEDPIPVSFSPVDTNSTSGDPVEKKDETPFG

binding result (human TrkB-His [1]) | binding result (mouse TrkB-ECD-GST) | binding result (human TrkA-His) | binding result (human TrkC-His) | koff (human TrkB-His [2]) [s⁻¹] | TrkB activation (EC50) [3] [µg/mL] | Binder
binds |  |  |  |  |  | KiH.F5_TrkB × 8A05_CD3 (bispecific antibody, scFv-knob-Fc (IgG1 T366W/S354C) + Fab-hole-Fc (T366S/L368A/Y407V/Y349C); also called F5-8A05; F5_8A05) scFv: not shown VH: QVQLQQSGGGLVQSGGSLRLSCAASGFSFGSSAMSWVRQAPGRGLEWVSGISHSGSTTYYADSVKGRFTISRDNSKNTLYLQMNSLRVEDTAVYYCAKIGAYGYYFHYWGQGTLVTVSS VL: NFMLTQPHSVSESPGKTVTISCTRSGGSIASNYVQWYQQRPGSSPTTVIYDDNQRPSGVPDRFSGSIDSSSNSASLTISGLKTEDEADYYCQSSDNINHVIFGGGTKLTVL
binds |  |  |  |  |  | KiH.3H11_TrkB × 8A05_CD3 (bispecific antibody, scFv-knob-Fc (IgG1 T366W/S354C) + Fab-hole-Fc (T366S/L368A/Y407V/Y349C); also called 3H11-8A05) scFv: QVQLQQSGPGLVKPSQTLSLTCAISGDSVSSNSAVWNWIRQSPSRGLEWLGRTYYRSKWYTDFAVSVKSRITINPDTSKNQFSLQLNSVTPEDTAVYYCARGRNGMDVWGQGTMVTVSTSSGGGGSGGGGSGGSALLPVLTQPPSASGTPGQRVTISCSGSSSNIGHKYVYWYQQLPGAAPKLLIYRNNQRPSGVPDRFSASKSGTSASLAISGLRSEDEADYYCATWDDSLNGVVFGGGTKVTVL VH: QVQLQQSGGGLVQSGGSLRLSCAASGFSFGSSAMSWVRQAPGRGLEWVSGISHSGSTTYYADSVKGRFTISRDNSKNTLYLQMNSLRVEDTAVYYCAKIGAYGYYFHYWGQGTLVTVSS VL: NFMLTQPHSVSESPGKTVTISCTRSGGSIASNYVQWYQQRPGSSPTTVIYDDNQRPSGVPDRFSGSIDSSSNSASLTISGLKTEDEADYYCQSSDNINHVIFGGGTKLTVL
binds |  |  |  |  |  | KiH.F5_TrkB × 3G07_CD3 (bispecific antibody, scFv-knob-Fc (IgG1 T366W/S354C) + Fab-hole-Fc (T366S/L368A/Y407V/Y349C); also called F5-3G07; F5_3G07) scFv: not shown VH: QVQLQQSGGGLVQPGGSLRLSCAASGFSFGSSAMSWVRQAPGRGLEWVSGISHSGSTTYYADSVKGRFTISRDNSKNTLYLQMNSLRVEDTAVYYCAKIGAYGYYFHYWGQGTLVTVSS VL: NFMLTQPHSLSESPGKTVTISCTRSSGSIASKYVQWYQQRPGSAPTTVIYDDKQRPSGVPDRFSGSFDSSSNSASLTISGLKTEDEADYYCQSFDSTNQAVVFGGGTKLTVL
binds |  |  |  |  |  | KiH.3H11_TrkB × 3G07_CD3 (bispecific antibody, scFv-knob-Fc (IgG1 T366W/S354C) + Fab-hole-Fc (T366S/L368A/Y407V/Y349C); also called 3H11-3G07) scFv: QVQLQQSGPGLVKPSQTLSLTCAISGDSVSSNSAVWNWIRQSPSRGLEWLGRTYYRSKWYTDFAVSVKSRITINPDTSKNQFSLQLNSVTPEDTAVYYCARGRNGMDVWGQGTMVTVSTSSGGGGSGGGGSGGSALLPVLTQPPSASGTPGQRVTISCSGSSSNIGHKYVYWYQQLPGAAPKLLIYRNNQRPSGVPDRFSASKSGTSASLAISGLRSEDEADYYCATWDDSLNGVVFGGGTKVTVL VH: QVQLQQSGGGLVQPGGSLRLSCAASGFSFGSSAMSWVRQAPGRGLEWVSGISHSGSTTYYADSVKGRFTISRDNSKNTLYLQMNSLRVEDTAVYYCAKIGAYGYYFHYWGQGTLVTVSS VL: NFMLTQPHSLSESPGKTVTISCTRSSGSIASKYVQWYQQRPGSAPTTVIYDDKQRPSGVPDRFSGSFDSSSNSASLTISGLKTEDEADYYCQSFDSTNQAVVFGGGTKLTVL
 | binds | no binding (tested: up to 10 µg/mL) | no binding (tested: up to 10 µg/mL) | 0.00545 | 0.07 | anti-TrkB clone 4G12 (antibody, V domains shown, full-length IgG) VH: EVQLVQSGAEVKKPGESLKISCKGSGYSFTSYWIGWVRQMPGKGLEWMGIIYPGDSDTRYSPSFQGQVTISADKSISTAYLQWSSLKASDTAMYYCARHDYGMDVWGQGTTVTVSS VL: QSVLTQPPSVSVSPGQTASITCSGDKLGDKFASWYQQKPGQSPVLVIYQDNKRPSRVPERFSGSNSGNTATLTISETQAMDEADYYCQAWVNNTVVFGGGTKVTVL
 | binds | no binding (tested: up to 10 µg/mL) | no binding (tested: up to 10 µg/mL) | 0.00544 | 0.13 | anti-TrkB clone 5A07 (antibody, V domains shown, full-length IgG) VH: QVQLVQSGAEVKKPGESLKISCKGSGYSFTSYWIGWVRQMPGKGLEWMGIIYPGDSDTRYSPSFQGQVTISADKSISTAYLQWSSLKASDTAMYYCARHDYGMDVWGQGTMVTVSS VL: LPVLTQPPSASGTPGQRVTISCSGSRSNVGGNTVSWYQQLPGSAPKLLIYTNNQRPSGVPDRFSGSKSGTSASLAISGLQSEDEADYYCAAWDDSLNGYVFGTGTQLTVL
 | binds | no binding (tested: up to 10 µg/mL) | no binding (tested: up to 10 µg/mL) | 0.00399 | 0.036 | anti-TrkB clone 2C07 (antibody, V domains shown, full-length IgG) VH: QVQLQQSGGGVVQPGRSLRLSCAASGFTFSNYAMHWVRQAPGKGLEWVAVISYDGSNEYYADSVKGRFTISRDNSRNTLDLQMNSLRAEDTAVYYCARGTNYGMDVWGQGTMVTVSS VL: LSELTQDPAVSVALGQTVRITCQGDSLRSYYASWYQQKPGQAPVLVIYGKNNRPSGIPDRFSGSDSGKTASLTITGAQAEDEADYYCQSRDTTGNYLLFGGGTKLTVL
 | binds | no binding (tested: up to 10 µg/mL) | no binding (tested: up to 10 µg/mL) | 0.00318 | 0.047 | anti-TrkB clone 1E02 (antibody, V domains shown, full-length IgG) VH: QVQLLQSAAEVKKPGESLKISCKGSGYRFTSYWIGWVRQMPGKGLEWVGIIYPDDSDTRYSPSFQGQVTISADTSISTTYLQWSSLKASDTAIYYCASGEVAFDVWGQGTTVTVSS VL: QSVLTQPPSLSVSPRQTASITCSGDKLGDKFVSWYQQKPGQSPVLVIYQDTKRPSGIPERFSGSNSGNTATLTISGTQAMDEADYYCQAWDSSTGVFGGGTKLTVL
 | binds | no binding (tested: up to 10 µg/mL) | no binding (tested: up to 10 µg/mL) | 0.0113 | 0.12 | anti-TrkB clone 2E02 (antibody, V domains shown, full-length IgG) VH: QVQLQQSGPGLVKPSQTLSVTCVISGDSVSSKSAAWHWIRQSPSRGLEWLGRTYYRSKWYSDYGESVKSRVVINADTSNNQISLQLSSVTPEDTAAYYCARGIGSLNFDIWGQGTMVTVSS VL: QSVLTQPPSASGSPGQSVTISCTGTSGDVGGYNYVSWYQQHPGKAPKLILYEVTKRPSGVPDRFSGSKSGNTASLTVSGLQAEDEADYYCSSYGGPNNLVLFGGGTKVTVL
 | binds | no binding (tested: up to 10 µg/mL) | no binding (tested: up to 10 µg/mL) | 0.011 | 0.51 | anti-TrkB clone 1F01 (antibody, V domains shown, full-length IgG) VH: QVQLQQSGPGLVKPAQTLSLTCDISGDSVSSKSAAWHWIRQSPSRGLEWLGRTYYRSKWYSDYGESVKSRVVINADTSNNQISLQLSSVTPEDTAAYYCARGIGSLNFDIWGQGTMVTVSS VL: QSVVTQPASVSGSPGQSITISCTGTSSDIGGYDYVSWYQQHPGKAPKLMIFDVSNRPSGVSNRFSGSKSGNTASLTISGLQADDEADYYCSSYRAGSTLNLLFGGGTKLTVL
 | binds | no binding (tested: up to 10 µg/mL) | no binding (tested: up to 10 µg/mL) | 0.00491 | 0.08 | anti-TrkB clone 5C01 (antibody, V domains shown, full-length IgG) VH: QMQLVQSGAEVKKPGESLKISCKGSGYSFTSYWIGWVRQMPGKGLEWLGIIYPGDSDTRYSPSFQGQVTISADKSISTAYLQWSSLKASDTAMYYCARLGQGSGPFDYWGQGTLVTVSS VL: QSVVTQPPSVSGTPGQRVSISCSGSSSNIGSHSVTWFQQLPGTAPKLLIYGNSQRPSGVPDRFSGSKSGTSASLAISGLQSEDEADYYCASWDDSLNGYVFGTGTKLTVL
binds |  |  |  |  |  | KiH.F5_TrkB × 1A09_CD3 (bispecific antibody, scFv-knob-Fc (IgG1 T366W/S354C) + Fab-hole-Fc (T366S/L368A/Y407V/Y349C); also called F5×1A09; F5-1A09) scFv: not shown VH: EVQLVQSGGGLVKPGGSLRLSCAASGFTFSSYSMNWVRQAPGKGLEWVSSISSSSSYIYYADSVKGRFTISRDNSKNTLYLQMNSLRAEDTAVYYCARVKDYDSSLDYWGQGTLVTVSS VL: SYELMQPPSVSVSPGQTARITCSGFKLGDKYVSWYQQKPGQSPVLVIYQDSKRPSGIPERFSGSNSGNTATLTISGTQAMDEADYYCQAWDSSTVVFGGGTKLTVL
binds |  |  |  |  |  | KiH.3H11_TrkB × 1A09_CD3 (bispecific antibody, scFv-knob-Fc (IgG1 T366W/S354C) + Fab-hole-Fc (T366S/L368A/Y407V/Y349C); also called 3H11-1A09) scFv: QVQLQQSGPGLVKPSQTLSLTCAISGDSVSSNSAVWNWIRQSPSRGLEWLGRTYYRSKWYTDFAVSVKSRITINPDTSKNQFSLQLNSVTPEDTAVYYCARGRNGMDVWGQGTMVTVSTSSGGGGSGGGGSGGSALLPVLTQPPSASGTPGQRVTISCSGSSSNIGHKYVYWYQQLPGAAPKLLIYRNNQRPSGVPDRFSASKSGTSASLAISGLRSEDEADYYCATWDDSLNGVVFGGGTKVTVL VH: EVQLVQSGGGLVKPGGSLRLSCAASGFTFSSYSMNWVRQAPGKGLEWVSSISSSSSYIYYADSVKGRFTISRDNSKNTLYLQMNSLRAEDTAVYYCARVKDYDSSLDYWGQGTLVTVSS VL: SYELMQPPSVSVSPGQTARITCSGFKLGDKYVSWYQQKPGQSPVLVIYQDSKRPSGIPERFSGSNSGNTATLTISGTQAMDEADYYCQAWDSSTVVFGGGTKLTVL
 | binds | no binding (tested: up to 10 µg/mL) | no binding (tested: up to 10 µg/mL) | 0.000586 | 0.018 | anti-TrkB clone 3C12 (antibody, V domains shown, full-length IgG) VH: QVQLVQSGAEVKKPGESLKISCKGSGYSFTSYWIGWVRQMPGKGLEWMGIIYPGDSDTRYSPSFQGQVTISADKSISTAYLQWSSLKASDTAMYYCTRSSFNDHWGQGTLVTVSS VL: QPVLTQPPSVSVSPGQTASITCSGDKLGNKFVSWFQQKPGQSPVLVIYQDTKRPSGIPERFSGSNSGSTATLTITGTQAMDDADYYCQAWNTNTALFGGGTKLTVL
 | binds | no binding (tested: up to 10 µg/mL) | no binding (tested: up to 10 µg/mL) | 0.00687 | 0.11 | anti-TrkB clone 6B11 (antibody, V domains shown, full-length IgG) VH: QVQLQQSGAGLVKASQTLALTCAISGDSVSSNSAAWNWIRQSPSRGLEWLGRTYYRSKWYNDYAVSVKSRITINPDTSTNQFSLQLNSVTPEDTAVYYCTRGTGDKRAFDYWGQGTLVTVSS VL: QSVLTQPPSASGTPGQRVTISCSGSSSNIGSYFVSWYQQLPGTAPKLLIYRNDKRPSGVPERFSGSKSGTSASLAISGLQSEDEADYYCAAWDDSLSGRIFGGGTKLTVL

From patent US20260092121A1 (TALEM THERAPEUTICS, published 2026)
